Values quoted from earlier work, collected in PMC3667765.

Target: E-cadherin (Homo sapiens) (UniProt P12830)
Chain of UniProt P12830 (P12830 155-709): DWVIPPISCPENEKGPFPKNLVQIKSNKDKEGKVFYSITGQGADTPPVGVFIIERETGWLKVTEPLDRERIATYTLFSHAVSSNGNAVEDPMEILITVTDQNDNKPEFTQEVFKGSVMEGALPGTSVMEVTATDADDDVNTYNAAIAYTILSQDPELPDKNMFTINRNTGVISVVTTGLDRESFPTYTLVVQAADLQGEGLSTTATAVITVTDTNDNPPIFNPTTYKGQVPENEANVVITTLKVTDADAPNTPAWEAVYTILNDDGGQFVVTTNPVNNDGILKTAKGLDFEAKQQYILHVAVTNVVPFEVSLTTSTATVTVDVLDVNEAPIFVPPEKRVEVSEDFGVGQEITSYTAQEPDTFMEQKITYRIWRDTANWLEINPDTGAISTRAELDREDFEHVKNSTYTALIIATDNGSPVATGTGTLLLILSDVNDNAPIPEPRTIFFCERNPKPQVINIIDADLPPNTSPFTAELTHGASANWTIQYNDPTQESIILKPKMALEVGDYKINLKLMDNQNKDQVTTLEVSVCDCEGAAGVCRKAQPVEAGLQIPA

**Q.** For Internalin A (from UniProt P0DJM0), which Kd is on record?
**A.** 8 µM
